pKd: −log10 of the molar value.
Tests used:
[1] = target: Human α1-acid glycoprotein (AGP) (human) (UniProt P02763); assay: SPR (Biacore T100), SubB immobilised
[2] = target: Human α1-acid glycoprotein (AGP) (human) (UniProt P02763); assay: SPR (Biacore […]), […], single cycle kinetics

Substance: Wild type SubB (subtilase cytotoxin B subunit) (from UniProt Q6EZC3 24-141) (other; other documents disagree on this pair)
- fold reduced binding affinity compared to bovine AGP [1]: 13 fold
- pKd [2]: 5.67
